Results: patent US6107048

Tests used:
monoclonal antibody 8H10 = assay: competition ELISA: peptide inhibits binding of 8H10 to recombinant Rab11
monoclonal antibody 12C3 = assay: competition ELISA: peptide inhibits binding of 12C3 to recombinant Rab25

Binder	IC50 (monoclonal antibody 8H10)	IC60 (monoclonal antibody 12C3)
QKQMSDRRENDMSPSNNVVPIHVPPTTENKPKVQ [Rab11 C-terminal variable region synthetic peptide]	1 µg/mL	–
KVSKQIQNSPRSNAIALGSAQAGQEPGPGQKR [Rab25 C-terminal variable region synthetic peptide]	–	1 µg/mL
